Data published in the supplement of paper PMC7125110.
± gives the standard error. This sample holds only a part of the variants without activity.

B1: glmS ribozyme (parent)
chain: AUAAAAGCGCCAGAACUACAGAAAUGUAGUUGACGAGGAGGAGGUUUAUCGAAUUUUCGGCGGAUGCCUCCAAA

Tests used:
Conditions in all cases: with glucosamine-6-phosphate
glucosamine-6-phosphate [1] = variants of: B1; assay: self-cleavage kobs at 160 uM GlcN6P; higher = faster cleavage; RNA array
Procedure, shortened: (§1)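 Sequenced MiSeq chips were the platform: E. coli RNA polymerase transcribed barcoded ribozyme variants on them in situ, and a hybridised Cy3 probe tracked these at 37 °C. After glucosamine-6-phosphate (40 μM to 10 mM) in HEPES/KCl/Mg(OAc)2 buffer was flowed in, tiles were imaged over ~14 h. Signals normalised to baseline and to non-cleaving reference variants were reduced to per-tile medians and fit to one- or two-exponential decays to obtain kobs. kcat and KM were derived through weighted Michaelis–Menten fits across concentrations.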

glucosamine-6-phosphate [2] = variants of: B1; assay: self-cleavage kobs at 640 uM GlcN6P; higher = faster cleavage; RNA array
Procedure, shortened: as §1

glucosamine-6-phosphate [3] = variants of: B1; assay: self-cleavage kobs at 2500 uM GlcN6P; higher = faster cleavage; RNA array
Procedure, shortened: as §1

glucosamine-6-phosphate [4] = variants of: B1; assay: self-cleavage kobs at 10000 uM GlcN6P; higher = faster cleavage; RNA array
Procedure, shortened: as §1

| Variant | self-cleavage kobs at 160 uM GlcN6P (glucosamine-6-phosphate [1]) [s⁻¹] | self-cleavage kobs at 640 uM GlcN6P (glucosamine-6-phosphate [2]) [s⁻¹] | self-cleavage kobs at 2500 uM GlcN6P (glucosamine-6-phosphate [3]) [s⁻¹] | self-cleavage kobs at 10000 uM GlcN6P (glucosamine-6-phosphate [4]) [s⁻¹] |
| --- | --- | --- | --- | --- |
| C11G U31G G44A U65C | < 1e-05 | < 1e-05 | < 1e-05 | – |
| G7U A14C G66U | < 1e-05 | – | < 1e-05 | – |
| G37U G38C C71U | < 1e-05 | < 1e-05 | – | – |
| A39U G51U G62U C71A | < 1e-05 | – | < 1e-05 | – |
| A33G G37U G59C | < 1e-05 | – | < 1e-05 | – |
| A6C A14G G29C A39C U54A | < 1e-05 | < 1e-05 | – | – |
| G41U A52U U57C | < 1e-05 | – | – | – |
| C16A A33U A36C A39C G43U | < 1e-05 | – | – | – |
| C16U A42U C67G | 6.07e-05 ± 1.8e-05 | 0.000203 ± 6.8e-05 | 0.000631 ± 0.00021 | – |
| G44U G63U | < 1e-05 | < 1e-05 | < 1e-05 | < 1e-05 |
| G41C G66U | < 1e-05 | < 1e-05 | – | – |
| A14G C58G U69A | 3.98e-05 ± 2e-05 | 8.05e-05 ± 3.6e-05 | 3.74e-05 ± 1.9e-05 | – |
| C16U G40C U49C G51A | < 1e-05 | < 1e-05 | < 1e-05 | – |
| A12U C16U U54A | 0.00397 ± 0.00072 | 0.00766 ± 0.0025 | – | – |
| A53G A64U U69G | 0.000191 ± 6.9e-05 | 0.000772 ± 0.00022 | 0.000517 ± 0.00019 | – |
| A42C U69A | 5.29e-05 ± 2.2e-05 | 0.000125 ± 3.8e-05 | 0.000182 ± 4.1e-05 | 0.0008 ± 0.00018 |
| G51U A52G C58U G59A | < 1e-05 | < 1e-05 | < 1e-05 | – |
| G7A A33C A42C A48C | < 1e-05 | – | < 1e-05 | – |
| C8A G29C C50U | < 1e-05 | – | < 1e-05 | – |
| U2C C16G A53C | 4.66e-05 ± 1.6e-05 | 0.000137 ± 1.9e-05 | 0.000285 ± 4.6e-05 | – |
| G41A A53U U54G | 0.000102 ± 3.4e-05 | 0.000241 ± 8.7e-05 | 0.000742 ± 0.0002 | 0.000285 ± 7.8e-05 |
| A53G G60A G66C | < 1e-05 | – | – | – |
| C34G U46A | < 1e-05 | – | < 1e-05 | < 1e-05 |
| C16U U55G U69G | 9.72e-05 ± 2.1e-05 | 8.62e-05 ± 2.4e-05 | 5.05e-05 ± 1.1e-05 | 4.21e-05 ± 1.4e-05 |
| G7A G35A G51C | < 1e-05 | – | < 1e-05 | – |
| C8G G66A | < 1e-05 | < 1e-05 | < 1e-05 | – |

| Variant | self-cleavage kobs at 160 uM GlcN6P (glucosamine-6-phosphate [1]) [s⁻¹] | self-cleavage kobs at 640 uM GlcN6P (glucosamine-6-phosphate [2]) [s⁻¹] | self-cleavage kobs at 2500 uM GlcN6P (glucosamine-6-phosphate [3]) [s⁻¹] | self-cleavage kobs at 10000 uM GlcN6P (glucosamine-6-phosphate [4]) [s⁻¹] |
| --- | --- | --- | --- | --- |
| G37C G41C | < 1e-05 | < 1e-05 | < 1e-05 | – |
| A36U G41A A42U G43U | < 1e-05 | < 1e-05 | < 1e-05 | – |
| G9C G32U A39U G41U | < 1e-05 | < 1e-05 | < 1e-05 | – |
| G9U G13C G40A G44U G63U | < 1e-05 | < 1e-05 | < 1e-05 | – |
| G35U U46C | < 1e-05 | < 1e-05 | – | – |
| G9U C16G G32U G38A A42G | < 1e-05 | – | – | – |
| A14C U55G C67U | 0.00016 ± 4.2e-05 | 0.000309 ± 9.8e-05 | 0.000399 ± 0.00015 | – |
| G41A G51C G63U C70G | < 1e-05 | < 1e-05 | – | – |
| C11G A15C A33C C34G U55C | < 1e-05 | < 1e-05 | – | – |
| C8U C16G G51U | < 1e-05 | < 1e-05 | < 1e-05 | – |
| A42C A48G U55A | < 1e-05 | < 1e-05 | – | – |
| G35C A36C | < 1e-05 | < 1e-05 | – | < 1e-05 |
| C8U G9C U31G A33C | < 1e-05 | < 1e-05 | < 1e-05 | – |
| G7U A12G U45C U46G C71U | < 1e-05 | – | < 1e-05 | – |
| A39C C61U C71U | < 1e-05 | < 1e-05 | < 1e-05 | – |
| A12G A36U C50G A64U C68U | 6.37e-05 ± 2.6e-05 | – | – | – |
| G32A U49C C61A | < 1e-05 | – | – | – |
| G7C C16U G44U | < 1e-05 | – | – | – |
| C34U U47A A48G U69G | < 1e-05 | – | – | – |
| G29C U46G U47A C70G | 5.51e-05 ± 2.1e-05 | 0.00011 ± 3.9e-05 | 6.12e-05 ± 2.5e-05 | – |
| A36U G44A U55A | < 1e-05 | – | < 1e-05 | – |
| A15U A39C C58A C70G | < 1e-05 | – | – | – |
| A14C A36G C58U | < 1e-05 | – | – | – |
| G9U G13A | < 1e-05 | < 1e-05 | – | < 1e-05 |
| U30C U69A | 5.29e-05 ± 1.5e-05 | 0.000111 ± 3e-05 | 5.71e-05 ± 1.2e-05 | 2.76e-05 ± 6.9e-06 |
| C10A G32C G38C | < 1e-05 | – | < 1e-05 | – |
